A protein production outcome set (Wang et al. 2014)

Assay: label from the status in PepcDB records

Row | Sequence | protein production
1 | MHKDELLELHEQMVTIMEYFRDDMDSVDPDLFDAYQELDVRPSDVHKSKSEHKHAVFVLGNSLATAMSEDEFSDAGRVSKRMKELAEDAERKLLEHHHHHH | not failed
2 | MQKNFSVVKKYVNLILDIVLGILGVFLLVFMASYLVDLATYLMKPMTPDNFSVIMQEIISFFMLFEFIMMILRYIQEGHHIPIRYLILICLTAILRQLMVAHGDGLQTLLLSLSILLLVVVLFILGLNGSKFYTLGKAKVEEDHEQDFHH | failed
3 | MAIDSKPHDDLQLFKTNLHPCGYWPDRWASDLVMDPNDPRLGAIYPQTLAWGFRRSGNLLYRPHCEHCNACVPVRVNVNAFVPNRSQRRCLARNATLVTRIVPAERNAEQLSLYRRYLHQRHPDGGMDGHGAIEFDQFLIGPWGYGRFMEIREPATNGTPGQLLAVAVTDLTHQALSAVYTFYEPNAAARGLGTLAILHQIHWAQREQRPYLYLGYWIKDHFKMDYKRRFQKLEIYDGYRWRPFSTTYPTTHTLLEHHHHHH | not failed
4 | MTRRVIALAGGATFKDIVRTMETQLISALPVIDSGSHVIGVVSEADVLRKEEFRDSDQLRGPRSRPPGALVKARAVTAEDLMTAPAVTVHPKAPVARAARLMARRRVKRLPVVDDEGVLQGIVSRADLLRVFLRSDPDIAEEVRREIVGGRFPEGLGSVRVEVHEGVVTLTGRVPDTSLVPLAERLVRSVEGVVDVRCVLTGPRHRMTGESEKAGAAAHRPGP | failed
5 | MESAPSRLDGDRPRLSVRLLGPLEILRDGVPLALPASRKLRALLAYLALAPHAVGRGRLCELLWDVPNDPRGELRWCLSKLRAALDTPDRRRVTTQGDAVALDLDGCLVDALEISQAAAQGIATLDVERLQGLAGLFAGDLLDGLELERSPHFDSWLVAQRRRFDAYHAAVLEQLAASLPADCDETVSRLDRWIELAPFDTRAHAALLASLARRGEIGAAEQHLASAERLFQSEDLDFAPLRQAWRSIRDQRASHQAQPAGLPTPSHLVAASGDTGPVEPSHASLAVMPFVDESGARGGLADGFTHDIITRLAKLRDFFVIARGSVFALAEKAIAPEEAGRKLGVDYVASGTVRSLTGRLIVSVELVEVRTARIVWAETFERRPHDLFAVLDDIGDSIVSSISAEIETVERNRAMLKAPNSLNAWEAYHRGLWHMYRFTQAENEQARHFFDKALQLDPTFARAYAGLSFTHWQNAFQRWGDRDRESALAYESAGHSLLVDDHNPAAHWAMGRALWLRGEQDGSLAELERAVDLSPNFALGHYALSFVHSQSGDPQAAIGSSDHSRHLSPFDPLLFGMLGSRAMSHVRLGQFEEAAEWALKAAARPNAHTIILAIAAHCLALAGRLDEARGFAAAIRKTLPDYRADDFIGTFRFDPDAEALFRQGARRIGFS | failed
6 | MNFPHMIPYNAPYYFVLLIAALLPMILTLAIKGTRWPWYQTLVTLVFLYISFGGEFWQQGVALIVYVIYQTLLTWGYAAYRKNKNAGWVFYLAVFLAILPLVWVKVSPFMTGKTTLLGFLGISYLTFKAVQVVMDLRDGVMKEYHPFRYIQFLLFFPTISSGPIDRYRRFEKDLKNPPSAEKYLDFLEKGIFYLFLGFLYKFIISHYLGGVFLPHVEKMALAQGGLSWWTVGYMYNYSLYLFFDFAGYSLLAVGTSYLMGYDTPMNFNKPFLSWNIKEFWNRWHMTLSFWFRDYIYMRLMFFLMKKKVFKSRIVTSNIGYFALFLIMGIWHGLTWFYIAYGLYHATLICVTDAWLRFKKKHKDKIPSNKFTHAFAVFLTFQAVCVSFLIFSGFLDKLWFK | not failed
7 | MKNLIFIATTFITTISLTNIAQAANQEHIRQLLATKQCQNCDLSGAGLVMADLTGANLSGANLAGANLSRANLSGADLRGANLSGAGLFGVNLSEAKLGGANLAGADLRSTFLSNAEFTGAYLQGTNFQGALGIPLQIATPDEFYALGVAEAQKGNQQQAINYFNQAIASKPEYAGAYLARGIARYQLFDRQGAAQDAQTAEKLFTSQDNATGIQTAQAFIKELQTPYTEKLSAGKPSFFDFLGSLGSVLLQFLPF | failed
8 | MPPQRRRRPEPEAPAPGRRGRRPEKKKSRGKRVLLWTGGSMAFVVLVAGVGGYVYLKHLEGNVSTTDVGTAGSSSFKKDEAFNILIIGTDKRTGEGNEGYGDKGSAGHADTNILLHVAEDRSNATALSIPRDLIVDIPDCETTQEDGTKKVIPGTSGVRFNQSLGDFGRDAGCTMRTVAETTGIKPDHFMMADFNAVKTLTTAVDGVDVCVEHAVDDPKSHLKLPAGESKVEGEQALAFVRTRHAFGNEGDLDRIKVQQQFLGSLMRKMASGDTLTSPTKLVKLAEAATKALTVDSAIGKVGTLKDIALELKKVPTKNITFTTVPVIDNPAEKVKATVVVNEAKGPQVFDMIKNDISFTEVEQQKKKEKAAVAARLKGEKSEPGEVRVRVMNGGAPAGSAQQELAYLQTQAGVSKSENAGNAPADIAKTTLEYAPDQADQARALAEILGLTGAAMKPGESVTNSQGLPTMTLTLGKDFKGAGVKLDGSVKKPDLDTESTADQKLCAS | failed
9 | MISIVIPLYNQVAYTQLCVQSLRRAGLNGVDVLLIDNGSTDGTAEYLKSCSDLRVIRNRENLGCAGAWNQGVRETTSEWVMILNNDVVVSPGWLDGLLEAAGKEGLDVVSPAIREGEYNYDIEGYSQEFVGRMGDVVRRGVADGICFMVRRRVFEVVGLFDENFRIGQFEDADFFRRARNAGFRLGTTGRSFIHHFGSVTQDAIRKNRPERPYVAENRAYFREKWQLTRGRRLIERWRRKLREFAWQKCERMFHGHTLKEKWLGGRLRYYLEHHHHHH | failed
10 | TNPQAVIGDSPTTSATQSKAVVVEFSDFQCPYCAKAHDTLKQLLAKHPGEITLVYKHLPLIPIHNEAMPAAKAAWAATQQGKFWEYHDALFSNQKQLGEALYLDIAKKLNLDLEKFNSDRLLADAAISKDIQIAQKLAIAGTPFFIMNSKTFSGGIDLSEIENKL | failed
11 | MVRANKRNEALRIESALLNKIAMLGTEKTAEAVGVDKSQISRWKRDWIPKFSMLLAVLEWGVVDDDMARLARQVAAILTNKKRPAATERSEQIQMEF | not failed
12 | MKKSLTLVLVVVSILIFSQTFKLEKVLGFSDISSLAFKDGYLLLGTGNGEIIVYKDGSYYRAFKVHDNRVNEVTFENGFIVSASDDKTVGVTNLETGEIKLLKGHMKGVSSVAVAGSKILSASFDGTVRVWSFPDGGEISSQKLGPSVVQIAAHENRYVVGLANGLALIRDLSNQSFSIPLKAHPEGIKKIVFSENGQLIATCGGNTVKVWNASNGNLVLQYDHVITVNDVAFLENDSLIFVADDYKAVVLNIQKNEVVKSIDAHNNFVLFVSSDDGSIATYGMDKTVKVWNANLELQYSLYGHQLSVNTVALSSDRKFIVSGSDDREILIWNTEKGIAEHRIKALSGVRKLLTVENNIISCLDSNQLKIYNLENGKLVKRIKVGTTSTMDIALQNDRMAVGFYDGSVALFRYPSFEEIWRKDTEHEMIQTIDMNNKFIAFGVSYSDPKDKIGYVEVLSADTGERVFLLEGHRGNVNAVKFAGDFLVSGGEDGKVILWNLDTGSKVKEIYLNEPVSSLFVDEKELFVGTWNGSIKIFAFPDLTLKTSLKASDQKIGHLIKVGNHLVVPCGDGKIRILVEK | failed
13 | MQIGLEAGLTNQLIDEIDQQPGHLPLLEFALTQLWSKQQNRLLTHQAYQEIGGVEEALANHAEAVYAQLTEADRQRAQQIFIQLVRLGDDTEATRRLTTREEVRLENWDLVTRLASSRLVVTNRNESTAEETVEIVHEALIRSWGRLEQWLIVDGDFLRWREQLRLAIRLWENSGHDQGVLLRGKALIDAQEWQLQRAQELNTNEIRFINKSGELRELEVKQQQRIRKIGISSLVTGLILALGLAGVAWLQGQKARMSETKAISSSAESFLNANLEFDGLIASIRAGRRIKGTDGIDANTRTQITETLQQSINFVREKNRLAEHDGMLESVSFSPDSKFIATASRDKTVKIWSLDGKKQLVVLREEKGEGFNSVAFSPDGTLMATGSWDNTAKIWSREGKRLHTLDGHKEAVLEVAFSPDSQLLATASWDNTVKLWSREGKLLHTLEGHKDKVNSITFSPDGQLIATVGWDNTMKLWNLDGKELRTFRGHQDMIWSVSFSPDGKQIATASGDRTVKLWSLDGKELQTLRGHQNGVNSVTFSPDGKLIATASGDRTVKLWNSKGQELETLYGHTDAVNSVAFSPDGTSIATAGNDKTAKIWKLNSPNSIIVRGHEDEVFDLVFSPNGKYIATASWDKTAKLWSIVGDKLQELRTFNGHQGRVNKLSFSPDGKYIATTSWDKTAKLWNLDGTLQKTLTGHKDTVWSVNFSPDGQLIATASEDKTVKLWNRDGELLKTLPRQSSVVNSAVFSPDGKLIATAGWDKTVKIWSIDGRLQKTLTGHTSGINSVTFSPDGKLIASASWDNTVKIWNLDGKELRTLRGHKNVVHNVTFSPDGKLIATASGDNTVKIWNINGQELRTLRGYKDAVWSLRFSLDGKTLATGSRYDIVVWHLYLDDLDQLLVRGCDWARDYLQNNPNVNPDEKSLCDGIRPIAQQ | failed
14 | MSFIEKMIGSLNDKREWKAMEARAKALPKEYHHAYKAIQKYMWTSGGPTDWQDTKRIFGGILDLFEEGAAEGKKVTDLTGEDVAAFCDELMKDTKTWMDKYRTKLNDSIGRD | not failed
15 | MAPFTLYTHAGPGPNPVKVAMALEHLGLDYDCIPLAFGEGKGTVKDPEYTSKVNPNGRVPGLIDHENNDFTVFESAAILQYLAEKTIQYDTSGKLAGSTPEERATVNKWLAWQVSGLGPYQGQLVWFLAFHEGAHGEKPNGSVIARYQAEVERLRSVLEKHLASAENGFVALGRLTIADFAILPWLKISVLAGSALKSFEEYPAINAYIKKLDALPEVQAAYKKAVPPMQ | failed
16 | MVNNDTLSGDVYTASEAKQVQNVSYGTIVNVRPVQIQGGDDSNVIGAIGGAVLGGFLGNTVGGGTGRSLATAAGAVAGGVTGQGVQSAMNKTQGVELEIRKDDGNTIMVVQKQGNTRFSPGQRVVLASNGSQVTVSPRLEHHHHHH | failed
17 | MEKVTKMISRMMVRVVTVAFALSLVAVACHEAEARAGGGRSFGSRGTRTYRPPTRTVDPAPASRPQPAPAVPQTFPQQRQGGSFLRSMAGGIVGGLLGGMLFRSLGFAGPGAGGVGLFDILLIGGILYLVYRFVASRRREAAATAGRAPDWSREEPVTPQQYRYGQPAESVPAAGADSGLAHVRQMDGSFSEEQFRQLAQDVFFRVQGAWTRRDLSSAREVLAPEMERALQGDVAELKARGQVNRLENIAVRQVELVEAWQEEGCDFITVRFLANLLDYTTDEEGRVLSGSDREPVKFEEFWTFTRPVGPNPWKLSAIQQA | failed
18 | MHISFIIPAFNEEQLIEPCLRSITDAVAANRSYGYTSEIIVVDNNSTDATAQLAKQAGAQVVFEPVNHIARARTAGAGAARGDWLVFMDADCLLNAGLVGDIFELIRQGRHIGAGSTLYMPGQPWWAEMLLRIWTFLSVQLGWAAGALIVCNAAAFREVGGFDLTLYAAEEIDLSQKLKKYGRKRKLKFAILNAHPLETSSRKTQLYSGWEIVGQFLRLVLSPLGTLRNKKKLPMWYDGRRLEHHHHHH | not failed
19 | MEKNQSDDDGTALIFLGTGCSGAVPDFRCLLQPSDPPCHVCSQSLSLLPHLNPNYRCNTSLLIDYCSKEEDGRHKYILIDVGKSFREQIILTHEHADAVHGLDEIRSLQPRGATIVDTDPLPVFLSQFTMESIATRFPYLVEKKVKEVPRRVSLLDWKNIEENCDEPFAASGLSFTPLPVMHGEDYIALGFLFGDKSKVAYISDVSRIPPSTEYAISKAGAGQLDLLILDTNIPWKRGPHPTHICFTEALEILKRLCPKRALLTGMTHEFDHHEYNEILAEWSLRDYVDF | failed
